Data from paper PMC4223631 (Developmental cell, 2014).

Biological target: rabbit muscle actin (filaments: ADP-F-actin or ADP•BeFx-F-actin) (rabbit, UniProt P68135 1-377)
Assay: co-sedimentation

KD of a small fraction (~20%) of the cofilin: ~1 µM | KD of the majority of the cofilin: ~5 µM
B1: cofilin-2 (mouse, recombinant wild type) (natural protein)
chain: MASGVTVNDEVIKVFNDMKVRKSSTQEEIKKRKKAVLFCLSDDKRQIIVEEAKQILVGDIGDTVEDPYTSFVKLLPLNDCRYALYDATYETKESKKEDLVFIFWAPESAPLKSKMIYASSKDAIKKKFTGIKHEWQVNGLDDIKDRSTLGEKLGGSVVVSLEGKPL
